This passage reports Kd and Ki results from patent US20250066421A1.

*1 amine or outer side, *2 acyl side, *3 side chain or, on linkers, in order; H or OH if unused. Bridges are numbered along the chain shown (N, C = ends). Where no end group is shown, it is not given here. [ ]: non-standard residue; d: D form. TATA = O=C(CC[*:1])N1CN(C(=O)CC[*:2])CN(C(=O)CC[*:3])C1; 1Nal = N[C@@H](Cc1cccc2ccccc12)C(=O)O; PABC = O=C(OCc1ccc(N[*:1])cc1)[*:2]; Glutaryl = O=C(CCCC(=O)[*:2])[*:1]; Cya = N[C@@H](CS(=O)(=O)O)C(=O)O; Hyp = O=C(O)[C@@H]1C[C@@H](O)CN1; dCya = N[C@H](CS(=O)(=O)O)C(=O)O; hArg = N=C(N)NCCCC[C@H](N)C(=O)O; Cit = NC(=O)NCCC[C@H](N)C(=O)O; βAla = NCCC(=O)O; Sar = CNCC(=O)O

In test [1] the target is Human Nectin-4 (residues Gly32-Ser349; NCBI RefSeq: NP_112178.2) with C-terminal FLAG tag, biotinylated (human) (UniProt Q96NY8). Nature of the test: SPR (Biacore 3000), biotinylated human Nectin-4 on streptavidin CM5 chip, peptide as analyte. Background: SPR reads the build-up and loss of mass on a sensor chip optically.
In test [2] the target is T1, human Nectin-4 (human), Q96NY8.
T1 chain: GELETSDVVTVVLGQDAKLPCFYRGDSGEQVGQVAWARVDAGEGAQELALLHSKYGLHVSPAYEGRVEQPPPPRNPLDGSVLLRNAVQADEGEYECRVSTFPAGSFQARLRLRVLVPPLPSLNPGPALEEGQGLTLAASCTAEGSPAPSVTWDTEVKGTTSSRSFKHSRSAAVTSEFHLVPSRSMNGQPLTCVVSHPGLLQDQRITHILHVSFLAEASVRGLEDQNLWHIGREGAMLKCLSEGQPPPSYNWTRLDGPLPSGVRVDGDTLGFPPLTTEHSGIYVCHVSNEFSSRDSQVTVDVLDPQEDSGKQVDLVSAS
Nature of the test: FP competition with tracer m4. As to conditions: remark: other sources report otherwise.

In test [3] the target is Human Nectin-4 (residues Gly32-Ser349; NCBI RefSeq: NP_112178.2) with C-terminal FLAG tag, biotinylated (human) (UniProt Q96NY8). Nature of the test: SPR (Biacore 3000), biotinylated human Nectin-4 on streptavidin CM5 chip, drug conjugate as analyte.

As a reminder, the Kd is the free concentration of one partner at which half of the binding sites on the other are occupied at equilibrium, for simple one-to-one binding. Take {Ac-βAla}-[Sar][Sar][Sar][Sar][Sar][Sar][Sar][Sar][Sar][Sar]CP[1Nal][dCya]CM[hArg][Cya]WSTP[Hyp]WC (linker 11-15-25 via TATA) [BCY8280: Ac-[B-Ala][Sar10]-(SEQ ID NO: 209)]: in test [1], the equilibrium dissociation constant (Kd) worked out at 2 nM.
As a reminder, the Ki is the equilibrium dissociation constant of an inhibitor or competing ligand from its target. The low end stands for higher affinity, the high end for lower affinity. With ACPFGCMKNWAWPIWCTNK (linker 2-6-16 via TATA) [BCY7424], in test [2], the inhibitory constant (Ki) was found to be 562 nM.
In turn, Ac-CP[1Nal][dD]CM[hArg][Cya]WSTP[Hyp]WC (linker 1-5-15 via TATA) [BCY8161: Ac-(SEQ ID NO: 177)] returned a Kd in test [1] of 0.94 nM.
On the same count and under the same terms, the result for {Ac-βAla}-[Sar][Sar][Sar][Sar][Sar][Sar][Sar][Sar][Sar][Sar]CP[1Nal][dD]CM[Cya][Cya]WSTP[Hyp]WC (linker 11-15-25 via TATA) [BCY8281: Ac-[B-Ala][Sar10]-(SEQ ID NO: 210)] reads 6.11 nM.
As for {MMAE-PABC-Cit-Val-Glutaryl-βAla}-[Sar][Sar][Sar][Sar][Sar][Sar][Sar][Sar][Sar][Sar]CP[1Nal][dCya]CM[hArg][Cya]WSTP[Hyp]WC (linker 11-15-25 via TATA) [BCY8784: MMAE-PABC-Cit-Val-Glutaryl-BCY8273], the Kd in test [3] amounted to 0.662 nM.
As for {Ac-βAla}-[Sar][Sar][Sar][Sar][Sar][Sar][Sar][Sar][Sar][Sar]CP[1Nal][dD]CM[hArg][Cya]WSTP[Hyp]WC (linker 11-15-25 via TATA) [BCY8278: Ac-[B-Ala][Sar10]-(SEQ ID NO: 177)], the Kd in test [1] was 1.92 nM.
